In data set [1] the target is T1, Pus7 delta ID-I (Saccharomyces cerevisiae, UniProt Q08647 1-74+216-676, internal_change).
T1 sequence: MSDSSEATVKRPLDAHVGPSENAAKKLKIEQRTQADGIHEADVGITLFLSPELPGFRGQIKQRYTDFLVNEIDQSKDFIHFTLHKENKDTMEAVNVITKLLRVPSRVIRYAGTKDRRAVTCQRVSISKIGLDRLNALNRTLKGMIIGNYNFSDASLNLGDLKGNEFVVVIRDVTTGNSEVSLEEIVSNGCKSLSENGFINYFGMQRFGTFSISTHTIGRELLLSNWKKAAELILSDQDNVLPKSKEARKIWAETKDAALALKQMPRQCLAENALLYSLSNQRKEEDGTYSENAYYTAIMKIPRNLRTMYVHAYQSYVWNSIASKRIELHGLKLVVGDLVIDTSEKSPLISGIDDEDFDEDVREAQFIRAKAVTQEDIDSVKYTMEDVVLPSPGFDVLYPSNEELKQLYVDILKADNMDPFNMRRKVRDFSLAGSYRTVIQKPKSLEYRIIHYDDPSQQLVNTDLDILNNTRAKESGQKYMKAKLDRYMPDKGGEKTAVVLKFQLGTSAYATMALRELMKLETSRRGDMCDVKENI
As to the kind of experiment: EMSA. In general terms: In EMSA bound probe runs differently from free probe, usually more slowly.

Data set [2] addresses T2, Pus7 WT (Saccharomyces cerevisiae, UniProt Q08647 1-676).
T2 sequence: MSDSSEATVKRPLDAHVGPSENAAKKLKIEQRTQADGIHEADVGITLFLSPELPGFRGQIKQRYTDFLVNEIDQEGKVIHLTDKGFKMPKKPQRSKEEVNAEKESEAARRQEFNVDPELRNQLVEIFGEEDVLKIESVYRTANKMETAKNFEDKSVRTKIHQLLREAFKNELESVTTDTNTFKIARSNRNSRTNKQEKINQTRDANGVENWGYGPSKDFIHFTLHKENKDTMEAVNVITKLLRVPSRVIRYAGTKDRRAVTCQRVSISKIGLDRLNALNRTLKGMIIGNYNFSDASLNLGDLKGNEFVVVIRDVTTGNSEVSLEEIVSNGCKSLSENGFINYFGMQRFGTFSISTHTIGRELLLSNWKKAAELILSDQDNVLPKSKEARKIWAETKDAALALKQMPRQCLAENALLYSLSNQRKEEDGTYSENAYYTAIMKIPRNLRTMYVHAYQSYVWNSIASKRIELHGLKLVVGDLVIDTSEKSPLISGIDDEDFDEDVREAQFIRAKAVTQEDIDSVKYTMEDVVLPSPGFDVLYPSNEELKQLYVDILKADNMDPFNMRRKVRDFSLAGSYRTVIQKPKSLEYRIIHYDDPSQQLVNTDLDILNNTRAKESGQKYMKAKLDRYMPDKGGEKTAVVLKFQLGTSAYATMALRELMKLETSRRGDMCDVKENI
Put plainly: EMSA.

For 1 molecule, binding signal and Kd results are on record in article PMC8794802.

In general, Kd refers to the free concentration of one partner at which half of the binding sites on the other are occupied at equilibrium, for simple one-to-one binding.

B1: Psi-modified CDC8 (ssRNA)
RNA: GUCAAUCACGAUUGUAGACGUUACUAAUAAGGGCAUUCAGGAAGUUGAAGCGCUUAUUUGG
modifications: pseudouridine at the UGUAG target U (U15)
Turning to B1, the binding signal in data set [1] is 8 fold weaker than D256A/delta ID-I on unmodified CDC8. This molecule also yielded a Kd in data set [2] of 75 ± 15 nM.
